Values joined by “and” are separate entries in the source; they are usually repeats but may differ in a detail not shown here. Equal values may be shown once.
Assays:
[1] = biological target: T1, human ILT4 (hILT4) expressed on cells (human, UniProt Q8N423 22-597); experiment: flow cytometry cross-blocking on hILT4 CHO cells: unlabelled antibody titrated from 40 µg/mL, then PE-2H2.IgG1.1f at 1.5 µg/mL; competitor: PE-2H2; GMFI (PE) falls from about 330 to about 25; the table calls the value EC50 and has no unit, the concentration axis is in µg/mL
T1 construct: hILT4 on transfected CHO or 293T cells, or native on human monocytes and macrophages; also called LILRB2
Text: (§1) After washing, the samples were acquired on a FACSCanto™ cytometer (BD Bioscience, San Jose) and analyzed with Flowjo™ software (Tree Star, Inc, Ashland, Oreg.).

human ILT2 = biological target: T2, human ILT2 (human, UniProt Q8NHL6 24-650); experiment: flow cytometry, 293T transfectants, antibody 20 µg/ml; stacked histograms, control: parental cells
T2 construct: whole, on cells; also called hILT2
Experimental: (§2) Individual ILT family members were overexpressed in 293T cells. Each transfectant was stained with 20 μg/ml of anti-ILT4 antibodies followed by 1 μg/ml of anti-human IgG secondary mAb. Binding of the antibodies to each transfectant was measured by flow cytometry.

human ILT5 = biological target: T3, human ILT5 (human, UniProt O75022 24-631); experiment: as above
T3 construct: whole, on cells; also called hILT5; LILRB3
Experimental: as §2

human LIR8 = biological target: T4, human LIR8 (human, UniProt O75023 24-590); experiment: as above
T4 construct: whole, on cells; also called hLIR8
Experimental: as §2

human LILRA4 = biological target: T5, human LILRA4 (human, UniProt P59901 24-499); experiment: as above
T5 construct: whole, on cells; also called hLILRA4
Experimental: as §2

human LILRA5 = biological target: T6, human LILRA5 (human, UniProt A6NI73 42-299); experiment: as above
T6 construct: whole, on cells; also called hLILRA5
Experimental: as §2

human LILRA2 = biological target: T7, human LILRA2 (human, UniProt Q8N149 24-483); experiment: as above
T7 construct: whole, on cells; also called hLILRA2
Experimental: as §2

human ILT3 = biological target: T8, human ILT3 (human, UniProt Q8NHJ6 22-448); experiment: as above
T8 construct: whole, on cells; also called hILT3
Experimental: as §2

human LILRA6 = biological target: T9, human LILRA6 (human, UniProt Q6PI73 24-481); experiment: as above
T9 construct: whole, on cells; also called hLILRA6
Experimental: as §2

hILT4-His-Avi tag [2] = biological target: T10, hILT4-His-Avi tag (human, UniProt Q8N423 22-459); experiment: SPR Biacore T200, 37 C; antibody captured on protein A/G chip, monomeric hILT4 as analyte; kinetic fit
T10 construct: also called monomeric human ILT4; extracellular region of hILT4 linked to a His-Avi tag

[3] = biological target: T1, human ILT4 (hILT4) expressed on cells; experiment: flow cytometry cross-blocking on hILT4 CHO cells: unlabelled antibody titrated from 40 µg/mL, then PE-21D9.IgG1.1f at 1.5 µg/mL; competitor: PE-21D9; the 21A5 curve does NOT fall: GMFI (PE) goes from about 615 up to about 665, no blocking of PE-21D9; the printed EC50 belongs to this small rise; table without unit, axis in µg/mL
Text: as §1

hILT4-His-Avi tag [4] = biological target: T10, hILT4-His-Avi tag; experiment: SPR Biacore T200, 37 C; antibody captured by anti-human Fc on CM4 chip, hILT4-His-Avi as analyte; 1:1 Langmuir fit
Experimental: The running buffer was 10 mM HEPES pH 7.4 supplemented with 0.05% Tween-20 and 1 g/L BSA. All anti-ILT4 antibodies were captured on a CM4 chip with pre-immobilized anti-human Fc capture antibody from Southern Biotech (catalog number 2081-01). […] All data were double-referenced and fitted to a 1:1 Langmuir model with mass transport using Biacore T200 Evaluation Software version 3.1.

human LILRA3 = biological target: T11, human LILRA3 (human, UniProt Q8N6C8 24-439); experiment: antibody titration flow cytometry binding assay on transfected cells, nonlinear regression
T11 construct: whole, on cells; also called hLILRA3; LIRA3

[5] = biological target: T1, human ILT4 (hILT4) expressed on cells; experiment: as above
human LILRA1 = biological target: T12, human LILRA1 (human, UniProt O75019 17-489); experiment: as above
T12 construct: whole, on cells; also called hLILRA1; LIRA1

[6] = biological target: T1, human ILT4 (hILT4) expressed on cells; experiment: flow cytometry on hILT4-transfected CHO cells, PE anti-human IgG secondary, GMFI (PE); EC50 from the table below the graph; the table has no unit, the concentration axis is in ug/mL
rhILT4-Fc [7] = biological target: T13, rhILT4-Fc (human, UniProt Q8N423-1 22-461); experiment: flow cytometry blocking assay: antibody titrated (12 points) with rhILT4-Fc fixed at 30 µg/ml; rhILT4-Fc bound to HLA-A overexpressing CHO cells read as % Positive; blocked ligand: HLA-A; the IC50 table has no unit, the concentration axis is in ug/mL
T13 construct: also called rhILT4-Fc fusion protein with a murine Fc tail; not shown: murine Fc tail

rhILT4-Fc [8] = biological target: T13, rhILT4-Fc; experiment: flow cytometry blocking assay: antibody titrated (12 points) with rhILT4-Fc fixed at 30 µg/ml; rhILT4-Fc bound to HLA-B overexpressing CHO cells read as % Positive; blocked ligand: HLA-B; the IC50 table has no unit, the concentration axis is in ug/mL
hILT4-His-Avi tag [9] = biological target: T10, hILT4-His-Avi tag; experiment: SPR ProteOn XPR36, 37 C; antibody amine-coupled to GLC chip, ILT4 ECD-His-Avi as analyte; kinetic titration
Experimental: (§3) The antibody was amine-coupled to a GLC sensor chip in a Proteon XPR36 instrument (BioRad). […] All data were double-referenced, exported, and analyzed with BIAevaluation Software 4.1.1 using the kinetic titration model described by Karlsson et al (Karlsson et al. (2005) Analytical Biochem. 349:136). The running buffer consisted of 10 mM HEPES pH 7.4, 150 mM NaCl and 0.05% Tween-20. The assay temperature was 37° C.

[10] = biological target: T14, cyno ILT4 9152 extracellular domain, including His-Avi Tag (cynomolgus monkey); experiment: as above
Experimental: as §3

[11] = biological target: T14, cyno ILT4 9152 extracellular domain, …; experiment: SPR ProteOn XPR36, 37 C; antibody amine-coupled to GLC chip, ILT4 ECD-His-Avi as analyte
Experimental: as §3

T10 sequence (Q8N423 other isoform, or with tags, fused parts or gaps): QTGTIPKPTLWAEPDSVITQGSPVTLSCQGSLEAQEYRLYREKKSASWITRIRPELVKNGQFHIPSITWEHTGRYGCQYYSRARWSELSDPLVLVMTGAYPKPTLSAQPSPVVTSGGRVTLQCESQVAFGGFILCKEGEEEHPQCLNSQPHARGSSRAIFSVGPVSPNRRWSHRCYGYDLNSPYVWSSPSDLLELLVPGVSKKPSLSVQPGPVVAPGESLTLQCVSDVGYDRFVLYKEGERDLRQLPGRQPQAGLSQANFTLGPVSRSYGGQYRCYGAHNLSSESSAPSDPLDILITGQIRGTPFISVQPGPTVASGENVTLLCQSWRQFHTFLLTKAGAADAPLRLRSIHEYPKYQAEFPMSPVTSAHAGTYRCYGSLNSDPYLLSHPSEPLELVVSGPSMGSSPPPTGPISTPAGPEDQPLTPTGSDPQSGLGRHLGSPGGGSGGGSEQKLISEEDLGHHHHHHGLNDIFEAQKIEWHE
T14 sequence (chain, as listed by the source limits assumed): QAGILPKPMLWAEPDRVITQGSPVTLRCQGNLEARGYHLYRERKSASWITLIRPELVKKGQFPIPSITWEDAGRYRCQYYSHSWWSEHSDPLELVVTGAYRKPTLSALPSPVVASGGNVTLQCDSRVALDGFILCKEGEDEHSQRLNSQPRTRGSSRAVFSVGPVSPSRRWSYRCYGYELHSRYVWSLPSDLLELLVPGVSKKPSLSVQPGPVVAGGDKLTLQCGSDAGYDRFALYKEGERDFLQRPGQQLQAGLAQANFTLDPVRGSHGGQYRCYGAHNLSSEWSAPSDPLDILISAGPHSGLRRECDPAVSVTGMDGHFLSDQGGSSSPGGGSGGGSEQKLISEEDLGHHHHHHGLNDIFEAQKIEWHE
T1 sequence (Q8N423 other isoform, or with tags, fused parts or gaps): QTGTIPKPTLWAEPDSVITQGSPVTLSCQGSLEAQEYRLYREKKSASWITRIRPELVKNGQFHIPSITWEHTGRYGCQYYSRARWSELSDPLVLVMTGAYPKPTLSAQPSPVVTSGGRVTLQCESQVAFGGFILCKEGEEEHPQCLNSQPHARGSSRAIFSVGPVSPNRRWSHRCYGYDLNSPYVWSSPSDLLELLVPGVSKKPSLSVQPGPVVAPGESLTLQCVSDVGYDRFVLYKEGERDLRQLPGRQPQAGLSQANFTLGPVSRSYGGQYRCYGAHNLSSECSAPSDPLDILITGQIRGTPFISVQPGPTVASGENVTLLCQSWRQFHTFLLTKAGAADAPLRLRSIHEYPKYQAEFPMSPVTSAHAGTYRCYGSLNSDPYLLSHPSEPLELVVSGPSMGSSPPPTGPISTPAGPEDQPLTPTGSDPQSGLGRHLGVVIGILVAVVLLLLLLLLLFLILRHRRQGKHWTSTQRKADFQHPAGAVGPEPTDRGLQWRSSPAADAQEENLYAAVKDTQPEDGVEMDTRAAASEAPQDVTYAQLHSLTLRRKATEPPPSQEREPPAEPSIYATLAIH
T13 sequence (Q8N423 other isoform, or with tags, fused parts or gaps): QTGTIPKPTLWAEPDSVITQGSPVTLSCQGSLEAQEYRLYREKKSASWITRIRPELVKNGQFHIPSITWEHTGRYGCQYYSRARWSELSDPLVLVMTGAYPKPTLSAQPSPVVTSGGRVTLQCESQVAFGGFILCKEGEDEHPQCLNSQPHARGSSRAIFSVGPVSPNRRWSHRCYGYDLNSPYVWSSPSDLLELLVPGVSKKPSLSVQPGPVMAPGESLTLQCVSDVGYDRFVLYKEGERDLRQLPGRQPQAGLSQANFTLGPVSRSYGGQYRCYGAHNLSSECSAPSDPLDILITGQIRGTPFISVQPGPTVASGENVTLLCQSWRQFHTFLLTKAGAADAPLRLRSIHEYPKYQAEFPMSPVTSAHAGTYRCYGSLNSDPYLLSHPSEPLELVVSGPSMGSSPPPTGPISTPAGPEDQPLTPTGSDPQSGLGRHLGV
T9 sequence (Q6PI73 24-481): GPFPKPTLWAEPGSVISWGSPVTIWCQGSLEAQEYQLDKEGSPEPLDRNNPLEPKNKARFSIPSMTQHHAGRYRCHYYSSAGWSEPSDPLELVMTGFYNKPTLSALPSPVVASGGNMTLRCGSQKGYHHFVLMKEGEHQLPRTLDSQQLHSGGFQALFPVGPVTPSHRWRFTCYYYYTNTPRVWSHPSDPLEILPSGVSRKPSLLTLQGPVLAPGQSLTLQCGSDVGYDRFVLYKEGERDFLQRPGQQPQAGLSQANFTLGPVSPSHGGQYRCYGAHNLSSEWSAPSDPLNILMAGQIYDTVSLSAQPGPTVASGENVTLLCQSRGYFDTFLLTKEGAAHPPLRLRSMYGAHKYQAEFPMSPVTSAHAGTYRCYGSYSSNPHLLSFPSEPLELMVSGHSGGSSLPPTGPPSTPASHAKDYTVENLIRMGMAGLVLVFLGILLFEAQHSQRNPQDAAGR
T6 sequence (A6NI73 42-299): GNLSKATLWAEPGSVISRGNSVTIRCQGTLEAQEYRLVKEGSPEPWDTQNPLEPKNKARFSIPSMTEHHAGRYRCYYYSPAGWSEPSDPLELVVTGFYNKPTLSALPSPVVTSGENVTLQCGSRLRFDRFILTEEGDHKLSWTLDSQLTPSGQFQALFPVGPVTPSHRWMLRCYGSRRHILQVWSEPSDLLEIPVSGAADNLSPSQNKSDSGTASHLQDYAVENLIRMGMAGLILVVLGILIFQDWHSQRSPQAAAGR
T5 sequence (P59901 24-499): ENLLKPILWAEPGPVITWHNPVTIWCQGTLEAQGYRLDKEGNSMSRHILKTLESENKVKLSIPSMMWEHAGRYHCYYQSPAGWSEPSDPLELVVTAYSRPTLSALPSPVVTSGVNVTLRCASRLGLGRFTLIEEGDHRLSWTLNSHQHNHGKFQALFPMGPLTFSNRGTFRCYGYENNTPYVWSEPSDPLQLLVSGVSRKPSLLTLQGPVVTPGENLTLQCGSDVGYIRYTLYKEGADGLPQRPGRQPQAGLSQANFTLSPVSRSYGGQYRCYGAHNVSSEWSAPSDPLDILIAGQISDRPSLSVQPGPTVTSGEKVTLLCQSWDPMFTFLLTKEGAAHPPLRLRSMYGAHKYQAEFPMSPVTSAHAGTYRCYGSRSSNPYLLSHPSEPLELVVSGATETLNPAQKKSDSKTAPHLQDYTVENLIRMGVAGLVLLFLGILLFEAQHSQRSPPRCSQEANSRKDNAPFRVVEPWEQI
T7 sequence (Q8N149 24-483): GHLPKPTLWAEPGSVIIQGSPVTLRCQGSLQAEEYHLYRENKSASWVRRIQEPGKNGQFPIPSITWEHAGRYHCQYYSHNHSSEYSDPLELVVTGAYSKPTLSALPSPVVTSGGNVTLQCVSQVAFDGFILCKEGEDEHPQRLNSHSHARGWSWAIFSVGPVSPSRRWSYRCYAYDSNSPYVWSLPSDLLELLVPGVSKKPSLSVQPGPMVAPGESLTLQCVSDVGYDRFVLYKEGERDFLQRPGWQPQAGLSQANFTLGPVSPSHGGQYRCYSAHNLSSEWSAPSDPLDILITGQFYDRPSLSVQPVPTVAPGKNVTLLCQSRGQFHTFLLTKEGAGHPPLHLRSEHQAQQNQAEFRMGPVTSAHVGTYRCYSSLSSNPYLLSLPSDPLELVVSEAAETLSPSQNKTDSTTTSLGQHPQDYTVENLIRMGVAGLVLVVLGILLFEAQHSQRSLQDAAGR
T2 sequence (Q8NHL6 24-650): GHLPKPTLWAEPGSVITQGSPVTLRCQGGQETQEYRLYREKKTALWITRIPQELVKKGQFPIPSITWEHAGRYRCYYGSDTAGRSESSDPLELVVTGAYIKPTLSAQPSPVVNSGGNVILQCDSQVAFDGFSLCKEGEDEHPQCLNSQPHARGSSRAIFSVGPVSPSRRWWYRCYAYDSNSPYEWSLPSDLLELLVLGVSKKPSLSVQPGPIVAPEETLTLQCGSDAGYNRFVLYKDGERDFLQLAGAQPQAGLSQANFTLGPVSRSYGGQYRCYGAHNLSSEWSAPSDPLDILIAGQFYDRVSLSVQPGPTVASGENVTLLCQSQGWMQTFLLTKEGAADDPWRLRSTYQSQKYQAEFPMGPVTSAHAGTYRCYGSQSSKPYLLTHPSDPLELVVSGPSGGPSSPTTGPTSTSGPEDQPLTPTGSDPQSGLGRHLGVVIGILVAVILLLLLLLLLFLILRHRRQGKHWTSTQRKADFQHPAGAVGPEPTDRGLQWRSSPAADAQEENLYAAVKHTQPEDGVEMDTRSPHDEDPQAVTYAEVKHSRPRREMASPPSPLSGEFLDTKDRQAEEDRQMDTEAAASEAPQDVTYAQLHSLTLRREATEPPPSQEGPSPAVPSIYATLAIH
T11 sequence (Q8N6C8 24-439): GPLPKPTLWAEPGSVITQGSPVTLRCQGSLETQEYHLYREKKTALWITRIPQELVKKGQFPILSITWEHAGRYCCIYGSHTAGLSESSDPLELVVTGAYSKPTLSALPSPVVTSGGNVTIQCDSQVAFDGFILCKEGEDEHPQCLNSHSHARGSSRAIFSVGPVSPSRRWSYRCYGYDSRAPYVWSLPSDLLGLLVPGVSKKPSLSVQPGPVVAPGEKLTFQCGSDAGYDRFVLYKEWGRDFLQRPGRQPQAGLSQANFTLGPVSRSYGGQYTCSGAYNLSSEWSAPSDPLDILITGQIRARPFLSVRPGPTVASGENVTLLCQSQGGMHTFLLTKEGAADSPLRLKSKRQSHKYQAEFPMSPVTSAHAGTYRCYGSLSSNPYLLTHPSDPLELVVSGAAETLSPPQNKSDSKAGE

B1: 21A5.IgG1.3 (antibody, V domains shown)
VH: QVQLVQSGAEVKKPGASVKVSCKASGYTFTDYYLHWVRQAPGQGLEWMGIFHPSGDITSSAQNFQGRVTMIRDTSTSTVYMELSSLRSEDTAVYYCARGGVLRYLDWSHAFDIWGQGTMVTVSS
VL: EIALTQSPGTLSLSPGERATLSCRASQSVSSSYLAWYQQKPGQAPRLLIYGASSRATGIPDRFSGSGSGTDFTLTISRLEPEDFAVYYCQQYGSTFGGGTKVEIKR
notes: Fully human antibody, IgG1.3, kappa; also called 21A5 WT; 21A5WT
[1]
  EC50: 0.0738 µg/mL
Human ILT2
  binding result: no binding (tested: 20 µg/ml)
Human ILT5
  binding result: no binding (tested: 20 µg/ml)
Human LIR8
  binding result: no binding (tested: 20 µg/ml)
Human LILRA4
  binding result: no binding (tested: 20 µg/ml)
Human LILRA5
  binding result: no binding (tested: 20 µg/ml)
Human LILRA2
  binding result: no binding (tested: 20 µg/ml)
Human ILT3
  binding result: no binding (tested: 20 µg/ml)
Human LILRA6
  binding result: no binding (tested: 20 µg/ml)
hILT4-His-Avi tag [2]
  Kd: 140 pM
  app. act.: 126%
  koff: 0.00017 s⁻¹
  kon: 1.2e+06 M⁻¹ s⁻¹
[3]
  EC50: 0.0898 µg/mL
hILT4-His-Avi tag [4]
  Kd: 23 pM
  app. act.: 98%
  koff: 1.2e-05 s⁻¹
  kon: 520000 M⁻¹ s⁻¹
Human LILRA3
  EC50: 9.18 µg/mL
[5]
  EC50: 0.091 µg/mL
Human LILRA1
  EC50: 12.5 µg/mL
[6]
  EC50: 0.0518 µg/mL
rhILT4-Fc [7]
  IC50: 3.83 µg/mL
rhILT4-Fc [8]
  IC50: 1.61 µg/mL

B2: 21D9.IgG1.3 (antibody)
heavy: EGQLLESGGDLVQPGGSLRLSCATSGFTFSNYAMNWVRQAPGKGLEWISVISVSGGSTYYADSVKGRFTISRDNSKNTLYLQMNSLRAEDTAVYYCAKDYYYDSGSYYDSFFDYWGQGTLVTVSSASTKGPSVFPLAPSSKSTSGGTAALGCLVKDYFPEPVTVSWNSGALTSGVHTFPAVLQSSGLYSLSSVVTVPSSSLGTQTYICNVNHKPSNTKVDKRVEPKSCDKTHTCPPCPAPEAEGAPSVFLFPPKPKDTLMISRTPEVTCVVVDVSHEDPEVKFNWYVDGVEVHNAKTKPREEQYNSTYRVVSVLTVLHQDWLNGKEYKCKVSNKALPAPIEKTISKAKGQPREPQVYTLPPSREEMTKNQVSLTCLVKGFYPSDIAVEWESNGQPENNYKTTPPVLDSDGSFFLYSKLTVDKSRWQQGNVFSCSVMHEALHNHYTQKSLSLSPG
light: not shown
notes: also called 21D9 WT; ILT4.6.IgG1.3
hILT4-His-Avi tag [2]
  Kd: 310 pM and 320 pM and 370 pM
  koff: 0.001 s⁻¹ and 0.0011 s⁻¹
  kon: 3.3e+06 M⁻¹ s⁻¹ and 3.2e+06 M⁻¹ s⁻¹ and 3e+06 M⁻¹ s⁻¹
hILT4-His-Avi tag [9]
  Kd: 320 pM
  koff: 0.00026 s⁻¹
  kon: 820000 M⁻¹ s⁻¹
[10]
  Kd: 4000 pM
  koff: 0.0035 s⁻¹
  kon: 880000 M⁻¹ s⁻¹
hILT4-His-Avi tag [4]
  Kd: 500 pM
  app. act.: 70%
  koff: 0.00054 s⁻¹
  kon: 1.1e+06 M⁻¹ s⁻¹
[6]
  EC50: 0.0127 µg/mL
[11]
  fold weaker affinity than for human ILT4: ~12 fold
